Consider one molecule from paper PMC8602281 (Nature Communications, 2021).

In this experiment the target is receptor-binding domain (RBD) of SARS-CoV-2 (SARS-CoV-2, UniProt P0DTC2). In words: SPR. Conditions: both partners purified.

B1: trastuzumab Fab with LCB1 insertion (Fab)
VH: EVQLVESGGGLVQPGGSLRLSCAASGFNIKDTYIHWVRQAPGKGLEWVARIYPTNGYTRYADSVKGRFTISADTSKNTAYLQMNSLRAEDTAVYYCSRWGGDGGSDKEWILQKIYEIMRLLDELGHAEASMRVSDLIYEFMKKGGSGFYAMDYWGQGTLVTVSS
VL: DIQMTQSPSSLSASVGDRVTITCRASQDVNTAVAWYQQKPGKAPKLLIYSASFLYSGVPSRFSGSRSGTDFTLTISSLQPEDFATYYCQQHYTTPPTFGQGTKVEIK
notes: also called trast-LCB1; trastuzumab +LCB1
As usually defined, the Kd is the equilibrium constant for the complex coming apart. A high value points to lower affinity. On to B1, for which the Kd is 900 pM.
